This passage reports abundance fitness results from the Human Domainome abundance scans (Beltran et al. 2025).

± gives the uncertainty stated by the source.

B1: E3 ubiquitin-protein ligase TRIM36, residues 208 to 252; numbered along this chain, Q9NQ86 (parent)
chain: KILMCPEHETERINMYCELCRRPVCHLCKLGGNHANHRVTTMSSA
B2: Bromodomain adjacent to zinc finger domain protein 2B, residues 1927 to 1982; numbered along this chain, Q9UIF8 (parent)
chain: KSIMKVYCQICRKGDNEELLLLCDGCDKGCHTYCHRPKITTIPDGDWFCPACIAKA

The first data set covers variants of B1. The data set is described as follows: abundance fitness (aPCA) (normalised: wild type 0, dead -1); higher = more abundant; growth selection in yeast, the domain comes from the species named. Particulars: Homo sapiens.
As to KILLCPEHETERINMYCELCRRPVCHLCKLGGNHANHRVTTMSSA, the abundance fitness is -0.187 ± 0.062. As to KILGCPEHETERINMYCELCRRPVCHLCKLGGNHANHRVTTMSSA, the abundance fitness was -0.238 ± 0.046.

For KILFCPEHETERINMYCELCRRPVCHLCKLGGNHANHRVTTMSSA, the abundance fitness worked out at 0.188 ± 0.12. The same measure, in the same setting: to KILQCPEHETERINMYCELCRRPVCHLCKLGGNHANHRVTTMSSA belongs -0.181 ± 0.059; to KILHCPEHETERINMYCELCRRPVCHLCKLGGNHANHRVTTMSSA, -0.133 ± 0.057.

For the variant KILWCPEHETERINMYCELCRRPVCHLCKLGGNHANHRVTTMSSA, the abundance fitness is -0.191 ± 0.062. On to KILSCPEHETERINMYCELCRRPVCHLCKLGGNHANHRVTTMSSA, for which the abundance fitness is -0.203 ± 0.049. With KILRCPEHETERINMYCELCRRPVCHLCKLGGNHANHRVTTMSSA, the abundance fitness was -0.165 ± 0.044. Same read-out and setting: for KILTCPEHETERINMYCELCRRPVCHLCKLGGNHANHRVTTMSSA the value was -0.072 ± 0.067; for HILMCPEHETERINMYCELCRRPVCHLCKLGGNHANHRVTTMSSA, -0.283 ± 0.14; for QILMCPEHETERINMYCELCRRPVCHLCKLGGNHANHRVTTMSSA, -0.236 ± 0.081. On the same count and under the same terms, for NILMCPEHETERINMYCELCRRPVCHLCKLGGNHANHRVTTMSSA the value was -0.101 ± 0.11; for WILMCPEHETERINMYCELCRRPVCHLCKLGGNHANHRVTTMSSA, -0.508 ± 0.057; for MILMCPEHETERINMYCELCRRPVCHLCKLGGNHANHRVTTMSSA, -0.277 ± 0.073. Same read-out and setting: for SILMCPEHETERINMYCELCRRPVCHLCKLGGNHANHRVTTMSSA the value was -0.396 ± 0.058. As to AILMCPEHETERINMYCELCRRPVCHLCKLGGNHANHRVTTMSSA, the abundance fitness was -0.25 ± 0.068.

In the case of IILMCPEHETERINMYCELCRRPVCHLCKLGGNHANHRVTTMSSA, the abundance fitness is -0.291 ± 0.14. In the case of FILMCPEHETERINMYCELCRRPVCHLCKLGGNHANHRVTTMSSA, the abundance fitness was -0.167 ± 0.097. Still for that read-out and setting: to YILMCPEHETERINMYCELCRRPVCHLCKLGGNHANHRVTTMSSA belongs -0.497 ± 0.12. Still for that read-out and setting: to GILMCPEHETERINMYCELCRRPVCHLCKLGGNHANHRVTTMSSA belongs -0.273 ± 0.058; to VILMCPEHETERINMYCELCRRPVCHLCKLGGNHANHRVTTMSSA, -0.243 ± 0.078; to RILMCPEHETERINMYCELCRRPVCHLCKLGGNHANHRVTTMSSA, -0.28 ± 0.062. Same read-out and setting: to CILMCPEHETERINMYCELCRRPVCHLCKLGGNHANHRVTTMSSA belongs -0.573 ± 0.17.

Regarding TILMCPEHETERINMYCELCRRPVCHLCKLGGNHANHRVTTMSSA, the abundance fitness was -0.157 ± 0.065. Same read-out and setting: to LILMCPEHETERINMYCELCRRPVCHLCKLGGNHANHRVTTMSSA belongs -0.388 ± 0.092.

Variants of B2 are the subject of another data set. The data set is described as above. Particulars: Homo sapiens.
KSIMKVYCQICRKGDNEELLLLCDGCDKGCHTYCHRPKITTIPDGDWFCPACINKA: the abundance fitness was -0.136 ± 0.17. Same read-out and setting: to KSIMKVYCQICRKGDNEELLLLCDGCDKGCHTYCHRPKITTIPDGDWFCPACISKA belongs -0.082 ± 0.088; to KSIMKVYCQICRKGDNEELLLLCDGCDKGCHTYCHRPKITTIPDGDWFCPACIRKA, -0.211 ± 0.073.

KSIMKVYCQICRKGDNEELLLLCDGCDKGCHTYCHRPKITTIPDGDWFCPACIVKA: the abundance fitness is -0.053 ± 0.09. The same measure, in the same setting: for KSIMKVYCQICRKGDNEELLLLCDGCDKGCHTYCHRPKITTIPDGDWFCPACIKKA the value was -0.036 ± 0.12. Regarding KSIMKVYCQICRKGDNEELLLLCDGCDKGCHTYCHRPKITTIPDGDWFCPACIQKA, the abundance fitness amounted to 0.066 ± 0.11.

In the case of KSIMKVYCQICRKGDNEELLLLCDGCDKGCHTYCHRPKITTIPDGDWFCPACIMKA, the abundance fitness was -0.309 ± 0.19. The same measure, in the same setting: to KSIMKVYCQICRKGDNEELLLLCDGCDKGCHTYCHRPKITTIPDGDWFCPACIIKA belongs -0.265 ± 0.13. On the same count and under the same terms, for KSIMKVYCQICRKGDNEELLLLCDGCDKGCHTYCHRPKITTIPDGDWFCPACIWKA the value was -0.229 ± 0.1; for KSIMKVYCQICRKGDNEELLLLCDGCDKGCHTYCHRPKITTIPDGDWFCPACILKA, 0.032 ± 0.089; for KSIMKVYCQICRKGDNEELLLLCDGCDKGCHTYCHRPKITTIPDGDWFCPACITKA, -0.031 ± 0.1. Still for that read-out and setting: for KSIMKVYCQICRKGDNEELLLLCDGCDKGCHTYCHRPKITTIPDGDWFCPACIPKA the value was 0.048 ± 0.1; for KSIMKVYCQICRKGDNEELLLLCDGCDKGCHTYCHRPKITTIPDGDWFCPACIHKA, -0.164 ± 0.13; for KSIMKVYCQICRKGDNEELLLLCDGCDKGCHTYCHRPKITTIPDGDWFCPACIYKA, -0.102 ± 0.2. With KSIMKVYCQICRKGDNEELLLLCDGCDKGCHTYCHRPKITTIPDGDWFCPACIGKA, the abundance fitness was -0.086 ± 0.072. Still for that read-out and setting: to KSIMKVYCQICRKGDNEELLLLCDGCDKGCHTYCHRPKITTIPDGDWFCPACIAKQ belongs -0.176 ± 0.32; to KSIMKVYCQICRKGDNEELLLLCDGCDKGCHTYCHRPKITTIPDGDWFCPACIAKW, -0.331 ± 0.33. In the case of KSIMKVYCQICRKGDNEELLLLCDGCDKGCHTYCHRPKITTIPDGDWFCPACIAKD, the abundance fitness is -0.019 ± 0.2.

For KSIMKVYCQICRKGDNEELLLLCDGCDKGCHTYCHRPKITTIPDGDWFCPACIAKG, the abundance fitness was -0.364 ± 0.21. As to KSIMKVYCQICRKGDNEELLLLCDGCDKGCHTYCHRPKITTIPDGDWFCPACIAKP, the abundance fitness was -0.533 ± 0.26. The same measure, in the same setting: to KSIMKVYCQICRKGDNEELLLLCDGCDKGCHTYCHRPKITTIPDGDWFCPACIAKC belongs -0.211 ± 0.23; to KSIMKVYCQICRKGDNEELLLLCDGCDKGCHTYCHRPKITTIPDGDWFCPACIAKS, -0.317 ± 0.17; to KSIMKVYCQICRKGDNEELLLLCDGCDKGCHTYCHRPKITTIPDGDWFCPACIAKT, -0.155 ± 0.16. The same measure, in the same setting: for KSIMKVYCQICRKGDNEELLLLCDGCDKGCHTYCHRPKITTIPDGDWFCPACIAKV the value was 0.045 ± 0.18; for KSIMKVYCQICRKGDNEELLLLCDGCDKGCHTYCHRPKITTIPDGDWFCPACIAKM, -0.28 ± 0.36; for KSIMKVYCQICRKGDNEELLLLCDGCDKGCHTYCHRPKITTIPDGDWFCPACIAKR, 0.174 ± 0.23. Consider KSIMKVYCQICRKGDNEELLLLCDGCDKGCHTYCHRPKITTIPDGDWFCPACIAQA, for which the abundance fitness was -0.171 ± 0.36.

With KSIMKVYCQICRKGDNEELLLLCDGCDKGCHTYCHRPKITTIPDGDWFCPACIACA, the abundance fitness is -0.154 ± 0.3.

Turning to KSIMKVYCQICRKGDNEELLLLCDGCDKGCHTYCHRPKITTIPDGDWFCPACIAGA, the abundance fitness came to 0.058 ± 0.48.
